Article PMC2248737

Columns and labels:
[1] = molecular target: T1, ttRecR (Thermus thermophilus HB8, UniProt Q5SHY0 1-194); assay: EMSA
T1 sequence: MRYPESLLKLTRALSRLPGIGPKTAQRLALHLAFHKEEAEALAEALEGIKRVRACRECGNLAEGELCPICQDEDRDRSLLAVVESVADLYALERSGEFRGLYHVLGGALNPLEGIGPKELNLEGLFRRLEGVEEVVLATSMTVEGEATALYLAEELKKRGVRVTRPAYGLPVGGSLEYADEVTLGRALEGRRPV

[2] = molecular target: T2, ttSSB (Thermus thermophilus HB8, UniProt Q5SLP9 1-263); assay: pull-down
T2 sequence: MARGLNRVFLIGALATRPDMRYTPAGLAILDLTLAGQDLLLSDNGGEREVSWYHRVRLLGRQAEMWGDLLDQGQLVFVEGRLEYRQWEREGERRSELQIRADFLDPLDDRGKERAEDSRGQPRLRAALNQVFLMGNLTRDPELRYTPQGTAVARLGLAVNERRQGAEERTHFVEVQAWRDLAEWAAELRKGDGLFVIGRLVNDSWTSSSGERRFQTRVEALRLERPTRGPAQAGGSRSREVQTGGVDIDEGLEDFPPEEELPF

B1: 66-mer ssDNA (ssDNA)
DNA: CTTATTAAAACGGCAACTCCTCCTCCGGCGGAAAGTCTTCCAAGCCTTCGTCAATGTCCACCCCAC
**Q.** Does B1 bind [1]?
**A.** no binding

B2: 60-mer ssDNA (ssDNA)
DNA: GCCAAGCTTGCATGCCTGCAGGTCGACTCTAGAGGATCCCCGGGTACCGAGCTCGAATTC
**Q.** Does B2 bind [2]?
**A.** binds
